These sequences were tested on Saccharomyces cerevisiae (assay: transcriptional activation domain activity (GFP:mCherry ratio, weighted mean of sorted bins, harmonized to initial dataset scale) (arbitrary fluorescence ratio units); higher = stronger transcriptional activation). Settings: beta-estradiol 1 µM; induction time 4 h.
Method in brief: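 Activation activity, the read-weighted mean of bin median fluorescence averaged across barcodes, was linearly mapped onto the scale of the initial dataset. It was measured for barcoded protein tiles fused to an estradiol-inducible synthetic transcription factor at URA3 in GFP-reporter yeast diploids. Cultures diluted 1:5 into SC with 1 uM beta-estradiol were held 4 hours at 30 °C, sorted into 8 bins by GFP:mCherry ratio, and barcode-sequenced, and tiles under 50 reads were discarded.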

Sequence | transcriptional activation domain activity
MSAFSGEDAPSPEGLDRKRKRQRTALSCTECKRRKIKCDRSQPCSSCIRRKVP | 42300
MSAPPEEVASTQSAQPTTEPALIGEPVKRGRGRPKGSKNKAKPSTAATATGEA | 34800
MSAPVEEKMAALNVNDKKPAAPKADKKAKKSKGTEGEYPLEFSPAPEYLQHRI | 30300
MSASPPTGSGGTDERQRQRVTRACEPCRRKKIRCDGRKPCSACADAQAGNGCA | 34300
MSATEATAVPAPAEEVKVVETPAVDPVPEAPAAEESAPATEVKKEERPKSPSL | 54600
MSAVCMFLRNRALFIHIFSVALTLFHVGAFQLLHCNCAYGFLVWGFLGCSLSL | 78500
MSCLDWNVFVFFFYLSILIFRLITHHYLSVFDLFFLYPFFLFLFTFPPTSFLL | 49500
MSDAAAPAPAPVEEVKPAEAAPEVVPAPRPLRRSPRPRRLRPLRPPPPSAAAE | 28400
MSDATPTSARKAMAPRRSHRKSRLGCANCKRRRIKCDEQKPACSNCVKHDIRC | 24400
MSDDLGASPTQRPLRKSHRKSRKGCLDCRRRRVKCGEERPSCLVCVRRNVRCE | 49200
MSDDSGASPTQRSVRKPHRKSRNGCLDCRRRRVKCGEEHPSCRVCVRRNVRCE | 49800
MSDHRIIIVLAFFLIFFFNPPPLPLPTYPYQYSLLTYSLFFEPFFFSFPFFFS | 63100
MSDLETPKRRRPGVRPRASQACRACAAAKVRCDNLQSCHRCQNKRVACVRGSH | 34100
MSDLPLFFYFYFITVCITSWRFTCILAPGLFFSFYFFLCFFCLFSLLSLHDLM | 20700
MSDTKSARSGDKERDKRRREKESDSSSKDGRRGSHSHSKTPEEPKEKGHKRKH | 13000
MSDWEEKWSKSRNRPYYFNKTTNESVWDKPDGFDGPAAKPPGSEGKVRASHLL | 38300
MSEEEGPAKSTSNKKRRLQGACDECRKRKVKCDSANMPGNQCSNCNVSHIECT | 42300
MSENTAIENVTVTLEKTKLDAPVTNEAEVAHAASAAEGRRLYIGNLAYSTTEE | 16900
MSENTAVENVTATLEKTKLEAPVTNEAEVAHAASAAEGRRLYIGNLAYSTTEE | 33100
MSENVDPPSPHDKSEAPTKRGRGRPKGSKNKSAAAGAVEQEDPAPVIPRKRRL | 36300
MSEPPRKRAKLACVTCNARRVKCDVTDRHPCSNCAAGNVECETRESRRGKHIR | 24000

Sequence | transcriptional activation domain activity
MSEPPRKRAKLACVTCNARRVKCDVTDRHPCTNCAAGNVECETRESRRGKHVR | 14300
MSEPPRKRAKLACVTCNARRVKCDVTDRQPCTNCITGNVHCETRESKRGKHPR | 20300
MSEPPRKRAKLACVTCNARRVKCDVTERQPCGNCVAGKILCETRESKRGKHPR | 33800
MSEPPRKRAKLACVTCNARRVKCDVTERQPCSNCIAGNALCETRESKRGKHPR | 15300
MSEPPRKRAKLACVTCNARRVKCDVTERRPCGNCIAGNVECETRESKRGKHPR | 32700
MSEPPRKRAKLACVTCNSRRVKCDVTDRQPCTNCITANVHCETRESKRGKHPR | 40500
MSEREREHRGGRQDRLTGRSRSRSVRRHEKGDKGADDGRQARERHRSRSPARK | 27400
MSETNAPAASAPDALAEGIAKLDVGAEGAQASEAAAPQANGAGEAAPAAAEAS | 23400
MSFFCLFHQLFDISCIFIYLILLENHFSLLCYLLLIFNFNCYFVIFSFLVLNF | 54800
MSFFFFFIRYFPWLFDFWLLAFVFYCLLIPRLNIFFLSFSCFNFLVFSLLLVG | 56000
MSFFLFFVSCLLLFFVFVLFLFFSFRSFLSSVPFPFRFCFLFLFALSLFFLLV | 41400
MSFFLSFFVLFCFYFYFTPCLFFSSHLLTFFFFSDSPLFVFYFFYFFFSSFVY | 67700
MSFFLYYFFYLLQGVIIHIIYTYISLFIPLHSFIIISFIFFFFIIFTLFFLLF | 70800
MSFFWDTSLCACVTRIREMSFWEFLVGLAFFFFFLVKGSCICVACFFFFFFWS | 34200
MSFKFFFCLLIPSFSLFKITYAWSYLMILEVVFSPFFSQVVVFVLFILHHFYH | 53000
MSFKKDEETGVSSFYQDKTSVIQEARVFNETPISPRKCRILLTKVIYLLYSGE | 44100
MSFLGLSFFAYLLGVGWILLFCLSFGLPQPLSFITWDCLTRGGFFFLLYFFCF | 44500
MSFLHCFFHVRYFPSNLFVIVIMFLLLFVHSFARGWRMEYAVSFLFNSLVLMY | 61700
MSFLLCGFCITFFFRFFLLSLFWMIRREQGICVSRLMFFFSFFFLSFNIIIFA | 52300
MSFLYFIRCFVSFHLELLDCYYMMIECLFIFLIFCITICLPFICLYSLLVECF | 49800
MSFQPLFYLLGLGVLFPLLFLLLSPPLFPSMAPFFLLQILLLMLTTELFFVPL | 39700

Sequence | transcriptional activation domain activity
MSFRFPTLFFFSLTLFLVSPFWFYLLFSVFFFLISLVFLESHFFCLGSINTLY | 39800
MSFVDLHGIWGFFLPFIFSVINWYLNYVLILTLLFFLCHVRIWVLYLVNIYRE | 55000
MSFYFNFYFPICLFFIFIFIVYFLFFIFYLFYFVVYFFLFLLAFIFVFFSVVY | 41700
MSGFVRLLFTFDFRNVLVDILVLHIPLYLFPLFVLSEEFLLLFSFCLFVFLSF | 31000
MSGIFSLSHLLVFRFFFFSIMRFLLVFLYFLFLTITIPHSLSLSLHLFHLFVS | 52600
MSGQLPAGAPRASPADASPTGPRAPTSSRPACLSCHTHKKRCVWKSAAPGTPC | 69400
MSGTNNSAAPPSYFDKAKDAMHSVVGNLTGHDDKETSSKPYVPTVSSACTAVV | 61800
MSGVGKLYRMGCWHGSHLPFIYFGHFILPFLLCLRPILSSVFFIYFFHLLCFF | 47000
MSHLLSSFLYDSLSFCFILLFGFDVILFPLFKYLWTTSSFYMFWMPDHLTLAV | 73900
MSHPYRGERVHLQVGQNIWIVALIVLVQIFSTVRSNPGCSLLVSMTAKFWCPR | 63800
MSHSASTSASTSTAAGEPSAKRMRLGTRSCAECRRRKVRCIVPPGARVCEGCS | 75900
MSIAWLCYSSALCQGLRNTIFPSLNIFLMDPLSEWTARQWLFYLVWLLTIVWK | 52800
MSIEKKFDDDSPIDIEPSRSYDLDTRRRAALAEIDNASFSRFHVKTVIVAGIG | 64400
MSIFFSVIPPFFSFLPLMLFFFFFLGCLGNGSTFFVSTLLWMGGSIGLLSFYS | 55600
MSIPPRLFYITFLLCFFNLLAYFHSLLFLSFNFPLQYLFTVNSVMHLVVSLPG | 53900
MSIVLLCSHIFYTLLGSRRFIAACFFWSLSVPSHLSHICLSCIFLLLSFFLLC | 53900
MSIVPVNSTYTLCILLMFVMLETTLYDPPLCGCMARLVTMFYGFFYGFFIYLI | 61000
MSKRAAEGSDSAGSSKKVKQDDSASTVFQKDEEGNLYVDLSSMKRATVSVFRG | 60400
MSKRLSFFFSGYLVLCGFSGVAFLFYFSLFNLVYYYPFLLLFNGFGGICIFLV | 56800
MSLAHGHLFNRLQAVGPWDSLCCMGCDLSTLYLAALHSPWRVSWWRFLILGLL | 58200
MSLASLAAQRSNCMKRAVGCVLVGRERRVISTGYNGTPRGIRNCGEGGCARCN | 44500

Sequence | transcriptional activation domain activity
MSLASLAAQRSNCMKRRVGCVVVRDKRVVSTGYNGTPRGLRNCGEGGCGRCNE | 21100
MSLAYLILGFPIPPFLPYFLDVVLSPLSRFSPLPLVFPFVLWCPTSLPLFTSF | 51400
MSLFFLFFFFFSSFFSFFLLLPLCSVMFMPPVLSLYGVTMGFLPPPPFFFFLF | 37900
MSLFFLLFPHVFAFILFLLSSFYSLSPIHSVFYPSFSLFPLSSLFYLTFPFSL | 59400
MSLFLHSIIGGWLLHLFSLLCFLLFCFSAFCFSTTLFVTRRSGFVVGLWSLCL | 52000
MSLFMLRTLPSFVCSSFCAMLHFCCSYSLLFYYWALSLPRWLPIPSGFIPIAF | 60200
MSLFSILYFYYTICFICFLTFLTIKDLHIYLLLKFQITIFLFCYFFVCFLSPL | 76600
MSLFSPCGETPLFLFPLFALTGLAPVLPPGSPLFFYLTLPLSFSFFHFFIFFF | 79500
MSLFSPSPSLSLYNFKIRFCILLVPLILAFLFLIILISYCLSLFICFSSSLWF | 54700
MSLGELAVLWVKRARHLGQSLLRVVLVSYAVDLPANCVALLRTGIRVLMLNMI | 37300
MSLICIYQTIGTFAQICSWYFEMVHAGLSGSDIAQLARSNVNRIWWYKLLFTT | 44500
MSLKEDDFGKDNSRNIESYTGRIFDVYIQKDSYSQSALDDMFPEAVVSTAACV | 32700
MSLKEKLSIIHMKIRHRIEMTILLLHIFSIPLCLSFFMLCCSFPFFWPFVILY | 77600
MSLKRRAHRKSRNGCRECKRRRIKCDETKPHCGHCVRHGIHCVYPESAGASPA | 43000
MSLLLCFRVLIFIYPLRVSFLVCSWLYILLFYMSLFHSSVICPHVKMNLFISL | 43900
MSLLMRVLCFCALGRPDLEDHWKSLQSEKAFEIVRTRVSSILDNIVTTAGVLL | 60400
MSLLWIYFLSFFPFFCQNLTLLCFYAHIWTLRITPTFVLAFHLVYPLIIHLPV | 27100
MSLLYYMVQSTTTMLLLTPPLCFTFFFIFFLLIFLFFIFYFLFLFYFINRDQS | 47600
MSLPGGFIFCCLFIFIFFAPFYSTFLRFFFPSCFYLFFYICCSFFFFFFFFPP | 38900
MSLPIHRLLSYTCSIIYLLVHHLYFVFSFFIPVYFIQAQFFFAAFPFILFFIC | 66900

Source: the supplement of paper PMC12636428
